Test results as given in paper PMC7212649, “An arrestin-1 surface opposite of its interface with photoactivated rhodopsin engages with enolase-1” (The Journal of Biological Chemistry, 2020).

B1: enolase-1 (bovine, unlabeled) (enzyme, UniProt Q9XSJ4 1-434, looked up)
chain: MSILKVHAREIFDSRGNPTVEVDLFTAKGLFRAAVPSGASTGIYEALELRDNDKTRYMGKGVSKAVEHINKTIAPALVSKKLNVVEQEKIDKLMIEMDGTENKSKFGANAILGVSLAVCKAGAVEKGVPLYRHIADLAGNAEVILPVPAFNVINGGSHAGNKLAMQEFMILPVGAENFREAMRIGAEVYHNLKNVIKEKYGKDATNVGDEGGFAPNILENKEALELLKNAIGKAGYSDKVVIGMDVAASEFYRSGKYDLDFKSPDDPSRYITPDELANLYKSFIRDYPVVSIEDPFDQDDWEAWQKFTASAGIQVVGDDLTVTNPKRIAKAVSEKSCNCLLLKVNQIGSVTESLQACKLAQSNGWGVMVSHRSGETEDTFIADLVVGLCTGQIKTVAPCRSERLAKYNQILRIEEELGSKAKFAGRSFRNPLAK
notes: enolase-1 (alpha-enolase), bovine; also called Eno1; source: prepared as arrestin-1 (Pichia pastoris, nickel-agarose)
B2: arrestin-1 E218C (C63A/C143A), mBBr-labeled (natural protein, bovine)
chain: KANKPAPNHVIFKKISRDKSVTIYLGKRDYIDHVERVEPVDGVVLVDPELVKGKRVYVSLTAAFRYGQEDIDVMGLSFRRDLYFSQVQVFPPVGASGATTRLQESLIKKLGANTYPFLLTFPDYLPCSVMLQPAPQDVGKSAGVDFEIKAFATHSTDVEEDKIPKKSSVRLLIRKVQHAPRDMGPQPRAEASWQFFMSDKPLRLAVSLSKEIYYHGCPIPVTVAVTNSTEKTVKKIKVLVEQVTNVVLYSSDYYIKTVAAEEAQEKVPPNSSLTKTLTLVPLLANNRERRGIALDGKIKHEDTNLASSTIIKEGIDKTVMGILVSYQIKVKLTVSGLLGELTSSEVATEVPFRLMHPQPEDPDTAKESFQDENFVFEEFARQNLKDAGEYKEEKTDQEAAMDE
modifications: monobromobimane (mBBr) on the introduced cysteine 218
notes: arrestin-1, bovine; also called E218C-mBBr; source: Pichia pastoris, purified (nickel-agarose)

Columns and labels:
[1] = target: arrestin-1 E361K (bovine) (UniProt P08168); experiment: co-IP; 5 μM arrestin-1 (or mutant) with 5 μM enolase-1–Alexa 546 in LAP200N, 2 h at 4 °C; captured by C10C10 anti-arrestin-1 mAb on Protein G magnetic beads for 16 h, 10 washes, eluted at pH 2.5; fluorescence of captured enolase-1 read
[2] = target: arrestin-1 D362K (bovine) (UniProt P08168); experiment: as above
arrestin-1 R29E (bovine) = arrestin-1 R29E (bovine) (UniProt P08168); experiment: as above
[3] = target: T1, arrestin-1 H10C (C63A/C143A), mBBr-labeled (bovine, UniProt P08168 2-404, C63A | C143A | H10C, monobromobimane (mBBr) on the introduced cysteine 10); experiment: fluorescence quench protection (KI quenching of mBBr); titration of the enolase-1 concentration against H10C-mBBr arrestin-1 to set the conditions; conditions: both partners purified
T1 construct: arrestin-1, bovine; source: Pichia pastoris, purified (nickel-agarose)

[4] = target: B2; experiment: fluorescence quench protection (KI quenching of mBBr); both in solution; 0.25 μM mBBr-labeled arrestin-1, 100 mM potassium iodide, with or without 5 μM enolase-1 (20-fold molar excess); emission at 470 nm; Pf = (F(A+E+K)−F(A+K))/(F(A)−F(A+K)); conditions: both partners purified
[5] = target: T2, arrestin-1 E302C (C63A/C143A), mBBr-labeled (bovine, UniProt P08168 2-404, C63A | C143A | E302C, monobromobimane (mBBr) on the introduced cysteine 302); experiment: as above; conditions: both partners purified
T2 construct: arrestin-1, bovine; source: Pichia pastoris, purified (nickel-agarose)

[6] = target: T1, arrestin-1 H10C (C63A/C143A), …; experiment: as above; conditions: both partners purified
[7] = target: T3, arrestin-1 R37C (C63A/C143A), mBBr-labeled (bovine, UniProt P08168 2-404, C63A | C143A | R37C, monobromobimane (mBBr) on the introduced cysteine 37); experiment: as above; conditions: both partners purified
T3 construct: arrestin-1, bovine; source: Pichia pastoris, purified (nickel-agarose)

[8] = target: T4, arrestin-1 K28C (C63A/C143A), mBBr-labeled (bovine, UniProt P08168 2-404, C63A | C143A | K28C, monobromobimane (mBBr) on the introduced cysteine 28); experiment: as above; conditions: both partners purified
T4 construct: arrestin-1, bovine; source: Pichia pastoris, purified (nickel-agarose)

[9] = target: T5, arrestin-1 R189C (C63A/C143A), mBBr-labeled (bovine, UniProt P08168 2-404, C63A | C143A | R189C, monobromobimane (mBBr) on the introduced cysteine 189); experiment: as above; conditions: both partners purified
T5 construct: arrestin-1, bovine; source: Pichia pastoris, purified (nickel-agarose)

[10] = target: T6, arrestin-1 V281C (C63A/C143A), mBBr-labeled (bovine, UniProt P08168 2-404, C63A | C143A | V281C, monobromobimane (mBBr) on the introduced cysteine 281); experiment: as above; conditions: both partners purified
T6 construct: arrestin-1, bovine; source: Pichia pastoris, purified (nickel-agarose)

[11] = target: T7, arrestin-1 S210C (C63A/C143A), mBBr-labeled (bovine, UniProt P08168 2-404, C63A | C143A | S210C, monobromobimane (mBBr) on the introduced cysteine 210); experiment: as above; conditions: both partners purified
T7 construct: arrestin-1, bovine; source: Pichia pastoris, purified (nickel-agarose)

[12] = target: T8, arrestin-1 D183C (C63A/C143A), mBBr-labeled (bovine, UniProt P08168 2-404, C63A | C143A | D183C, monobromobimane (mBBr) on the introduced cysteine 183); experiment: as above; conditions: both partners purified
T8 construct: arrestin-1, bovine; source: Pichia pastoris, purified (nickel-agarose)

[13] = target: T9, arrestin-1 E50C (C63A/C143A), mBBr-labeled (bovine, UniProt P08168 2-404, C63A | C143A | E50C, monobromobimane (mBBr) on the introduced cysteine 50); experiment: as above; conditions: both partners purified
T9 construct: arrestin-1, bovine; source: Pichia pastoris, purified (nickel-agarose)

[14] = target: T10, arrestin-1 K53C (C63A/C143A), mBBr-labeled (bovine, UniProt P08168 2-404, C63A | C143A | K53C, monobromobimane (mBBr) on the introduced cysteine 53); experiment: as above; conditions: both partners purified
T10 construct: arrestin-1, bovine; source: Pichia pastoris, purified (nickel-agarose)

[15] = target: T11, arrestin-1 D362C (C63A/C143A), mBBr-labeled (bovine, UniProt P08168 2-404, C63A | C143A | D362C, monobromobimane (mBBr) on the introduced cysteine 362); experiment: as above; conditions: both partners purified
T11 construct: arrestin-1, bovine; source: Pichia pastoris, purified (nickel-agarose)

[16] = target: T12, arrestin-1 K267C (C63A/C143A), mBBr-labeled (bovine, UniProt P08168 2-404, C63A | C143A | K267C, monobromobimane (mBBr) on the introduced cysteine 267); experiment: as above; conditions: both partners purified
T12 construct: arrestin-1, bovine; source: Pichia pastoris, purified (nickel-agarose)

[17] = target: B1; experiment: fluorescence quench protection (KI quenching of mBBr); E218C-mBBr arrestin-1 with enolase-1 in the presence of 5 μM pRho* (sonicated disc membranes, light for 1 min); conditions: both partners purified

With “enolase-1 labeled with Alexa Fluor 546 (from UniProt Q9XSJ4 1-434) (enzyme)” the reduction of the pulldown against WT arrestin-1 [1] was 25%, the reduction of the pulldown against WT arrestin-1 [2] was 25% and the reduction of the pulldown against WT arrestin-1 (arrestin-1 R29E (bovine)) was 25%.

For B1, the “quench protection at a 20-fold molar excess of enolase-1” value [3] was 90%, the “Pf (quench protection factor)” value [4] was 1.08 and the “Pf (quench protection factor)” value [5] was 0.772. The “Pf (quench protection factor)” value [6] was 0.792, the “Pf (quench protection factor)” value [7] was 0.564 and the “Pf (quench protection factor)” value [8] was 0.732. The “Pf (quench protection factor)” value [9] was 0.467, the “Pf (quench protection factor)” value [10] was 0.269 and the “Pf (quench protection factor)” value [11] was 0.618. The “Pf (quench protection factor)” value [12] was 0.787, the “Pf (quench protection factor)” value [13] was 0.297 and the “Pf (quench protection factor)” value [14] was 0.314. The “Pf (quench protection factor)” value [15] was 1.2 and the “Pf (quench protection factor)” value [16] was 0.484.

B2: binds [17].
